Target: human recombinant SNAP25 (Synaptosomal Associated Protein 25) (human), P60880
Assay: SPR

Chain of human recombinant SNAP25 (Synaptosomal Associated Protein 25) (human), P60880 (P60880 whole entry): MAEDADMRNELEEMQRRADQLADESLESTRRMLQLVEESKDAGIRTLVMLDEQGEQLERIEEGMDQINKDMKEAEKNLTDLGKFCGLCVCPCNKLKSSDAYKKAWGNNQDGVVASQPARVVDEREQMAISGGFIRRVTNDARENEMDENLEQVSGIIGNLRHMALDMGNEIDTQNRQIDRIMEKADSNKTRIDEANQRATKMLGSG

- Kd: 15 nM
B1: Bovine Type VI Collagen (complex)
chain 1: not shown
chain 2: QQQEVISPGPSDRNSCPEKADCPVHVYFVLDTSESITMQSPTDSLLYHMQQFVLQFISQLQDELYLDQVALSWRYGGLHFSDLVEVFSPPGSDRASFTKSLQSISSFRRGTFTDCMLANMTQEVRRHVGKGVVNFAVVITDGHVTGSPCGGIKLQAERAREEGIRLFAVPPNLKLNEQGLRDIANTPHELYRNNYATMRPDSTEIDQDTINRIIKVMKHEAYGECYKVSCLEIPGPPGPKGYRGQKGAKGNMGEPGEPGQKGRQGDPGIEGPIGFPGPKGVPGFKGEKGEFGADGRKGAPGLAGKNGTDGQKGKLGRIGPPGCKGDTGDRGPDGYVGEAGSPGERGDQGSKGDPGRPGRRGPPGENGAKGSKGYQGNNGAPGSPGLKGAKGGPGPRGPKGEPGRRGDPGTKGGPGSDGPKGEKGDPGPEGPRGLAGEVGNKGAKANRGLPGPRGPQGTVGEPGKQGSRGDPGDAGPRGDSGQPGPKGDPGRPGFSYPGPRGAPGDKGEPGPPGPEGGRGDFGSKGEPGRKGQKGEPADPGPPGEPGPRGQRGAPGPEGEPGPPGDPGLTECDVMTYVRETCGCCDCEKRCGALDVVFVIDSSESIGYTNFTLEKNFVINVVNRLGAIAKDPKSETGTRVGVVQYSHEGTFEAIQLDDERIDSLSSFKEAVKNLEWIAGGTWTPSALKFAYNKLIKESRRQKTRVFAVVITDGRHDPRDDDLNLRALCNHEVTVTAIGIGDMFHEKHESENLYSIACDKPQQVRNMTLFSDLVAEKFIDDMEDVLCPDPQIVCPDLPCQTELYVAQCTQRPVDIVFLLDGSERLGEQNFHKVRRFVEEVSRRLTLARKDDDPLNARVALLQFGGPREQQVAFPLTSNLTVIQEALASARYLNSFSHVGTGIVQAINQVVQGARAGARRHAELSFVFLTDGVTGNDSLDEAVHSMRKQNVVPTVVAVGSDVDTDVLSKISLGDPAAVFREKDYDSLAQPGFFDRFIRWIC
chain 3: not shown

— paper PMC11429891
